Source: the supplement of paper PMC9170038

System: MS2 coat protein
Experiment: apparent KD of MS2 coat protein; higher = weaker reporter binding
Details: Eterna round: R107
Procedure: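 RNA-MaP round R107: designed RNA switches with theophylline, tryptophan, arginine or FMN aptamers are transcribed on-chip within common flanks. They are titrated with SNAP-549-labelled MS2 coat protein in RNA-MaP buffer (100 mM Tris pH 7.5, 80 mM KCl, 4 mM MgCl2), without ligand or with the indicated ligand. Median apparent KD per design.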

[1] = input ligand: theophylline 20 uM
[2] = input ligand: theophylline 2 mM
[3] = input ligand: tryptophan 2.4 mM

Sequence | apparent KD of MS2 coat protein (input ligand: arginine 13.2 mM) [nM] | apparent KD of MS2 coat protein [1] [nM] | apparent KD of MS2 coat protein [2] [nM] | apparent KD of MS2 coat protein (input ligand: none) [nM] | apparent KD of MS2 coat protein [3] [nM]
AAUUAUCAGUCGGCCGCCACUGACACAUGAGGAUCACCCAUGUAACAUGGGUAAAAUUAACUGAACAGGACCGGGACAAAGGCUA [JR_ExcTryptoB_Sub008] | 179 | 671 | 740 |  | 
AAUUCCUAACAUGAGGAUCACCCAUGUGAAGGAGCGCCGAAUAAGGCAGGUAGGUCGCACAUGGAACCGCUACGAAAGUAGCAAA | 22.5 | 23.6 | 21.6 | 23.5 | 17.8
ACACGGAAUGAUGGAUCACCUCGUUAAUAACGAGGACCGGUACGGCCGCCACUCGAAAACCGUGACCUGUACGAAAAGUGCAGGA [TrypAS 15 #SwitchBubble #HomemadeMS2 #StaticStrem #MS2Early] | 27.3 | 314 | 488 | 33.6 | 76.1
ACAUACAUGAGGAUCACCCAUGUCCAUGUUCGAGGACCGGUACGGCCGCCACUCGCGCGACAGCAUGAGGAACUUGAGGAUCACA [Exclusion Tryptophan A] | 39.5 | 104 | 82.2 | 63.8 | 48.8
ACAUGAAGAACAGCGGUGGGCGCGCUCGAUACCAGUAUUUUAAAUUACCCUUGGCAGCGACAUGAGGAUCACCCAUGUGAGAUGA [XTheo A #5] | 22.5 | 24.8 | 33.8 | 18.1 | 18
ACAUGAGGAUCACCCAUGUAAAUAACGGAAGGAGCGUGCAAAAGCACAGGUAGGUCGCCGAUAUAAAUAUUGGGUAAUAUAUUAU [ExyArgA#1] | 25 | 41.5 | 28.2 | 34.2 | 28
ACAUGAGGAUCACCCAUGUAAUAAUCAGAAGGAGCGUGGAAUAACACAGGUAGGUCGCUGAUGUUUGGUUAAAUGUAAUCGUGUA [JR_SSArginiA_Sub001] | 13 | 18.1 | 17.6 | 13.5 | 17.1
ACAUGAGGAUCACCCAUGUAAUACCGGGAAGGAGCGCGUAAGGACGCAGGUAGGUCGCUCGGCGUCCGGCCGCAAGGCCGGACGA [#1 Same State - Arginine A Attempt #12 (HarryS)] | 21 | 24.3 | 10.7 | 14.4 | 14.7
ACAUGAGGAUCACCCAUGUAUCAACGGGAAGGAGCGCCAAACAAGGCAGGUAGGUCGCCCACAUGAGGAUCACCCAUGUGUUGGU [Exclusion Arginine A GF 29] | 20.6 | 25.8 | 24.9 | 21.4 | 21.1
ACAUGAGGAUCACCCAUGUAUGACUAUCCUCGAGGACCGGUACGGCCGCCACUCGAACGAGUGGCUCGCGAGUGCGCACUCGCGA [5' end] | 11.7 | 16.6 | 11.3 | 13.3 | 10.3
ACAUGAGGAUCACCCAUGUAUGACUAUCCUCGAGGACCGGUACGGCCGCCACUCGAAGGAGUGGCUCGCGAGUGCGCACUUGCGA [5' end] | 10.9 | 19.2 | 11.8 | 11.9 | 12.1
ACAUGAGGAUCACCCAUGUAUGAUGUUCCUCGAGGACCGGUACGGCCGCCACUCGAACGAGUGGCGCGCGCGCGCGCGCGCGCGC [aUa] | 54.8 | 35.1 | 22.7 | 16.5 | 16.4
ACAUGAGGAUCACCCAUGUCAAGGCACGAUACCAGCUGAUCCCGUGGCCCUUGGCAGCGUCACGUUUGGUCCCGCGGAUGACACG [zczmullin] | 38.4 | 111 |  |  | 86.9
ACAUGAGGAUCACCCAUGUCACGGCACGAUACCAGCUGAUGCGGUGGCCCUUGGCAGCGUGACGUUUGGUCCCGCGGAUGACGGG [zzmullin] | 36.6 | 74.3 |  |  | 53.2
ACAUGAGGAUCACCCAUGUCAGGGCACGAUACCAGCUGAUCCGGUGGCCCUUGGCAGCGUGACGUGUGGUCAUGAGGAUCACCCG [wsmullin] | 283 | 642 | 638 | 520 | 464
ACAUGAGGAUCACCCAUGUCAUGAGGUUCACGAGGACCGGUACGGCCGCCACUCGACAUGAGGGUCACCCAUGUGAGGAACACCC [mamullun] | 117 | 278 | 579 |  | 
ACAUGAGGAUCACCCAUGUCUGCCUCGGAUACCAGCGGAAGAAAACGCCCUUGGCAGCCGAACAUGAGGAUCACCCAUGUAGGCU [Same State Theophylline A GF30] | 28.8 | 55.1 |  |  | 45.2
ACAUGAGGAUCACCCAUGUGAAGGCACGAUACCAGCUGAUCCCGUGGCCCUUGGCAGCGUCCGGUGUGGUCCGGCGGGUGGGACG [bbvmullin] | 25.8 | 75.4 | 50.3 | 29 | 24.4
ACAUGAGGAUCACCCAUGUUCCUCGCCGAUACCAGUGAAGAAGAACGCCCUUGGCAGCGGAAAGAAUAUUUUGGAGAUGAGGUAU [6.W] | 120 | 219 |  |  | 165
ACAUGAGGAUCACCCAUGUUCCUCGCCGAUACCAGUGAAGAAGAACGCCCUUGGCAGCGGAAAGAGUAUUUUGGAGAUGAGGUAC [6.X] | 72.5 | 134 |  |  | 124

Sequence | apparent KD of MS2 coat protein (input ligand: arginine 13.2 mM) [nM] | apparent KD of MS2 coat protein [1] [nM] | apparent KD of MS2 coat protein [2] [nM] | apparent KD of MS2 coat protein (input ligand: none) [nM] | apparent KD of MS2 coat protein [3] [nM]
ACAUGAGGGAUGGAUACCAGCGACAUGAGGAUCACCCAUGUAUGAGGAUCAGCCAUGUUAUGCCCUUGGCAGCCACGAACAUGAG [ACFMULLIN] | 26.2 | 103 | 235 | 35.6 | 37.2
ACAUGGGUCUGAAGGAGCGCGAUAACAUGAGGAUCACCCAUGUAAAAUGGAACAUGAUAAUCGCAGGUAGGUCGCAGUAAAACCC [Same State Arginine B GF 11] | 133 | 344 | 704 | 303 | 365
ACAUUUAACUGAAGGAGCGUGAAUAACAUGAGGAUCACCCAUGUAACUUAGAUGCUUAUUUCACAGGUAGGUCGCAGACUAAUGA [JR_ExcArginiB_Sub010] | 10.4 | 13.7 | 10.3 | 10.3 | 10.9
ACAUUUAACUGAAGGAGCGUGAAUAACAUGAGGAUCACCCAUGUAACUUAGAUUCUUAUAUCACAGGUAGGUCGCAGACUAAUGA [JR_ExcArginiB_Sub012] | 24.9 | 25.7 | 21.5 | 17 | 19
ACAUUUAACUGAAGGAGCGUGAUAAACAUGAGGAUCACCCAUGUACCAAAGAUUUUCAGAUCACAGGUAGGUCGCAGACUAAUGA [JR_ExcArginiB_Sub015] | 12.8 | 16.7 | 12.6 | 11.7 | 13.3
ACCGCAUCCGUAUAGGAUGCGGCCCAUGAAGGAGCGUGGGAAACCACAGGUAGGUCGCAUGACAUGAGGAUCACCCAUGUUUAUU [Matrix] | 27.8 | 52.7 | 40.9 | 44.2 | 33.9
ACCGCAUCCGUAUAGGAUGCGGCCCAUGAAGGAGCGUGGGAAACCACAGGUAGGUCGCAUGGACAUGAGGAUCACCCAUGUUAUU [Inception] | 43.7 | 79.3 | 62.7 | 59.8 | 48.3
ACGAACGCACCUGAGGAACACCCAGGUGAUACCAGCCUGGAAACAGGCCCUUGGCAGCACCUAAAAUAAAGGUAACGUUCGAAUA [TheoAX8 #MicroSwitchBubble #AlternativeMS2] | 171 | 231 | 180 | 126 | 98.9
ACGACGCAUAGUGAUACCAGCACAACAUGAGGAUCACCCAUGUCACAUAUGUUGUAAUAAUGCCCUUGGCAGCACUAUGCGUCAG [SSTheo B #2] | 34.6 | 83.3 |  |  | 50.8
ACGGAUCGGAAACGAUCCGCGGCGCGGGUGCGAGGACCGGUACGGCCGCCACUCGGGUAACAUGAGGAUCACCCAUGUCCGAUUU [ETA NP+V+V2 #12] | 65.7 | 101 | 129 |  | 
ACGUCCGGAUUGAUCGUGGGCAUGGUCGAUACCAGUAUUUUAAUCUACCCUUGGCAGCGACAUGAGGAUCACCCAUGUGCGAUGA [XTheo A #19] | 16.1 | 21.5 |  |  | 16.2
ACUAGAGGUGGAAGGAGCGGGAGACAUGAGGAUCACCCAUGUGAAGUUUCGAGAGGAUCAUCCCAGGUAGGUCGCCAUGUCGAAA [vvbvmullin] | 35.3 | 46.9 | 61.6 | 27.4 | 43.7
AGACAUGAGGAUCACCCAUGUAGCACGGAUACCAGAUCCAGAUUUAUCCCUUGGCAGCUGUGGUACAGCGUUGCAACGCUCCUAG [Exclusion - Theophylline A (Freestyle 16)] | 17.6 | 23.2 |  |  | 17.1
AGACGAGAAGAGGAUUACCCAUGUACAGAAGGAGCGUCGUUGACGACAGGUAGGUCGCUGAGAACAUGAGGAUCACCCAUGUUGA [Arg A Ex t1] | 29.9 | 53.9 | 39.8 | 42.9 | 36
AGAUUCGACACGGCCGCCACUCGAGACGGAUUUCCGAGUGUCGAACAUGAGGAUCACCCAUGUCCGAGGACCGGGUGUUGAGUCU [XTryp B #10] | 24.3 | 42.8 | 51.1 |  | 
AGAUUCGACACGGCCGCCACUCGUGACGGAUUUCCGAGUGUCGAACAUGAGGAUCACCCAUGUCCGAGGACCGGGUGUUGAGUCU [XTryp B #12] | 33.7 | 43.8 | 55.9 |  | 
AGAUUCGACACGGCCGCCACUCGUGGAGGAUUUCCGAGUGUCGAACAUGAGGAUCACCCAUGUACGAGGACCGGGUGUUGAGUCU [XTryp B #14] | 21.1 | 43.4 | 32.2 |  | 
AGCACUGUGACGGCCGCCACUACAUAACAUGGGUGGUCAGGUUCAUUACAUGAGGAUCACCCAUGUAGGACCGGGUCUCAGUGCA [Omei Trp Exc B A v11] | 12.1 | 17.7 | 12.6 |  | 
AGCCACUCGAGUGAUCCUCACGAGUGGCAACGAGGACCGGUACGGCCGCCACUCGAAUAAACAUGAGGAUCACCCAUGUAAUAAU [T''-M-T'-T-MS2] | 13.6 | 152 | 683 |  | 
